Test results from patent publication US20240301049A1 (Ablynx, published 2024).

Assays:
human TNF-α [1] = target: T1, human TNF-α (human, UniProt P01375 77-233); experiment: cell-based or functional assay
cyno TNF-α [2] = target: T2, cyno TNF-α (cynomolgus monkey, UniProt P79337 77-233); experiment: cell-based or functional assay
human IL-6 [3] = target: T3, human IL-6 (human, UniProt P05231 30-212); experiment: cell-based or functional assay
cyno IL-6 [4] = target: T4, cyno IL-6 (cynomolgus monkey, UniProt P79341 28-212, limits assumed); experiment: cell-based or functional assay
T4 sequence (looked up): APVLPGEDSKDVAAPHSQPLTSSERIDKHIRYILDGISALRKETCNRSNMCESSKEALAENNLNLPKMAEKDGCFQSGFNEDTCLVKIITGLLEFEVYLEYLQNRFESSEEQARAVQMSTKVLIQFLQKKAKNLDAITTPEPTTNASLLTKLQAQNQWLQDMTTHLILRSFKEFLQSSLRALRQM

human TNF-α [5] = target: T1, human TNF-α; experiment: cell-based or functional assay; remark: listed apart in the source
cyno TNF-α [6] = target: T2, cyno TNF-α; experiment: cell-based or functional assay; remark: listed apart in the source
human IL-6 [7] = target: T3, human IL-6; experiment: cell-based or functional assay; remark: listed apart in the source
cyno IL-6 [8] = target: T4, cyno IL-6; experiment: cell-based or functional assay; remark: listed apart in the source
human IL-6 [9] = target: T3, human IL-6; experiment: SPR

T2 sequence (P79337 77-233 limits assumed): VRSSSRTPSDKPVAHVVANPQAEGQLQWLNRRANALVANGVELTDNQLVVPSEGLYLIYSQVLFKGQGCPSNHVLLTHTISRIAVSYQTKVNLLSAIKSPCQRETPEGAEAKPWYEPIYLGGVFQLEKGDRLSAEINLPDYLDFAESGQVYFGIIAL
T1 sequence (P01375 77-233 limits assumed): as the sequence (P79337 77-233 limits assumed) above, with V37L, T44R, N72T, L138R counted along it

B1: F027200927 (bispecific antibody)
chain: DVQLVESGGGVVQPGGSLRLSCTASGFTFSTADMGWFRQAPGKGREFVARISGIDGTTYYDEPVKGRFTISRDNSKNTVYLQMNSLRPEDTALYYCRSPRYADQWSAYDYWGQGTLVTVSSGGGGSGGGSEVQLVESGGGVVQPGGSLRLSCAASGRTFSSYVMGWFRQAPGKEREFVSTINWAGSRGYYADSVKGRFTISRDNAKNTVYLQMNSLRPEDTALYYCAASAGGFLVPRVGQGYDYWGQGTLVTVSSGGGGSGGGSEVQLVESGGGVVQPGGSLRLSCAASGFTFRSFGMSWVRQAPGKGPEWVSSISGSGSDTLYADSVKGRFTISRDNSKNTLYLQMNSLRPEDTALYYCTIGGSLSRSSQGTLVTVSSGGGGSGGGSEVQLVESGGGVVQPGGSLRLSCAASGFSLDYYGVGWFRQAPGKEREGVSCISSSEGDTYYADSVKGRFTISRDNAKNTVYLQMNSLRPEDTALYYCATDLSDYGVCSRWPSPYDYWGQGTLVKVSSA
Human TNF-α [1]
  IC50 hTNF-α Nfkb assay: 59.3 pM
Cyno TNF-α [2]
  Ratio IC50 cyno TNFα/hTNFα: 4.3 ratio
Human IL-6 [3]
  IC50 hIL-6 TF1 proliferation assay: 71.2 pM
Cyno IL-6 [4]
  Ratio IC50 cyno IL-6/hIL-6: 1 ratio
Human TNF-α [5]
  Ratio IC50 reference anti-TNF-α mAb/Nb: 4.2 ratio
  hTNF-α Nfkb assay (IC50, pM): 59 pM
Cyno TNF-α [6]
  cyno TNF-α NFkb assay (IC50, pM): 254 pM
Human IL-6 [7]
  Ratio IC50 reference anti-IL-6 mAb1/Nb: 1.8 ratio
  hIL-6 TF1 proliferation assay (IC50, pM): 71 pM
Cyno IL-6 [8]
  cyno IL-6 TF1 proliferation assay (IC50, pM): 72 pM

B2: F027201061 (bispecific antibody)
chain: EVQLVESGGGVVQPGGSLRLSCTASGFTFSTADMGWFRQAPGKGREFVARISGIDGTTYYDEPVKGRFTISRDNSKNTVYLQMNSLRPEDTALYYCRSPRYADQWSAYDYWGQGTLVKVSSGGGGSGGGSEVQLVESGGGVVQPGGSLRLSCAASGFTLAYYAIGWFRQAPGKEREGVSCISGSVGTTYYADSVKGRFTISRDNAKNTVYLQMNSLRPEDTALYYCVRSSWFDCGVQGRDLGNEYDYRGQGTLVTVSSGGGGSGGGSEVQLVESGGGVVQPGGSLRLSCAASGFTFRSFGMSWVRQAPGKGPEWVSSISGSGSDTLYADSVKGRFTISRDNSKNTLYLQMNSLRPEDTALYYCTIGGSLSRSSQGTLVTVSSGGGGSGGGSEVQLVESGGGVVQPGGSLRLSCAASGFSLDYYGVGWFRQAPGKEREGVSCISSSEGDTYYADSVKGRFTISRDNAKNTVYLQMNSLRPEDTALYYCATDLSDYGVCSRWPSPYDYWGQGTLVKVSS
Human TNF-α [1]
  IC50 hTNF-α Nfkb assay: 71.2 pM
Cyno TNF-α [2]
  Ratio IC50 cyno TNFα/hTNFα: 2.5 ratio
Human IL-6 [3]
  IC50 hIL-6 TF1 proliferation assay: 147 pM
Cyno IL-6 [4]
  Ratio IC50 cyno IL-6/hIL-6: 0.7 ratio
Human TNF-α [5]
  Ratio IC50 reference anti-TNF-α mAb/Nb: 0.91 ratio
  hTNF-α Nfkb assay (IC50, pM): 71 pM
Cyno TNF-α [6]
  cyno TNF-α NFkb assay (IC50, pM): 176 pM
Human IL-6 [7]
  Ratio IC50 reference anti-IL-6 mAb1/Nb: 2.7 ratio
  hIL-6 TF1 proliferation assay (IC50, pM): 147 pM
Cyno IL-6 [8]
  cyno IL-6 TF1 proliferation assay (IC50, pM): 101 pM

B3: F027201040 (VHH)
VHH: EVQLVESGGGVVQPGGSLRLSCAASGFTLAYYAIGWFRQAPGKEREGVSCISGSVGTTYYADSVKGRFTISRDNAKNTVYLQMNSLRPEDTALYYCVRSSWFDCGVQGRDLGNEYDYRGQGTLVTVSS
notes: also called IL6006B12 (L11V, S52aG, S60A, K83R, V89L)
Human IL-6 [9]
  koff: 5.9e-05 s⁻¹
